Measured values from patent CN115894698A (SHAANXI MYBIOTECH CO LTD, dated 2023).
Blank lines part the entries; values can stand above or below the binder they belong to.

What was measured:
[1] = target: T1, CHI3L1-6his(pcDNA3.1，在293T细胞中过表达的完整人CHI3L1) (human, UniProt P36222 22-383); test: CBA, immunofluorescence on acetone-fixed 293T cells overexpressing CHI3L1-6his
T1 construct: whole, on cells; CBA / immunofluorescence target: transfected, acetone-fixed 293T cells; also called 完整CHI3L1序列; 过表达CHI3L1蛋白的细胞; not shown: 6his tag

[2] = target: T2, Q CHI3L1-329-346-6his(缺失329-346片段的CHI3L1构建体) (human, UniProt P36222 22-383); test: immunofluorescence on transfected, acetone-fixed 293T cells
T2 construct: Deletion construct, overexpressed in 293T cells from pcDNA3.1, acetone-fixed; not shown: 6his tag

[3] = target: T1, CHI3L1-6his(pcDNA3.1，在293T细胞中过表达的完整人CHI3 …; test: as above

- binding result [1]: binds
B1: 人CHI3L1单克隆抗体1D7(杂交瘤细胞1D7-C5-D5培养上清) (antibody, V domains shown)
VH: EVQLLETGGGLVQPGGSRGLSCEGSGFTFSGFWMSWVRQTPGKTLEWIGDINSDGSTINYAPSIKDRFTIFRDNDKSTLYLQMSNVRSEDTATYFCMRYKGAHWGQGTLVTVSA
VL: not shown
notes: Tested as culture supernatant; also called 1D7杂交瘤细胞上清; 阳性杂交瘤细胞上清

- binding result [2]: no binding
- binding result [3]: binds
B2: 重组单克隆抗体1D7(1D7m2a + 1D7mk，293T细胞上清) (antibody, V domains shown)
VH: B1 VH
VL: not shown
notes: VH cloned into pFUSE-CHIg-m2a (mouse IgG2a constant region of the vector), VL into pFUSE2ss-CLIg-mk (mouse kappa); Tested as 293T culture supernatant; also called 重组1D7单克隆抗体; 重组单克隆细胞上清
